The supplement of paper PMC9112550, “Optimization of the antimicrobial peptide Bac7 by deep mutational scanning” (BMC Biology, 2022)

tested on: Escherichia coli TOP10; assay: shrunken log2 fold change of peptide-encoding DNA abundance (4.5 h post-induction vs induction); higher = less antimicrobial activity (less host growth inhibition); conditions: time post-induction: 4.5 h; library: site-saturation at positions 5, 18, 19, 20
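Note: peptides expressed intracellularly from a pBAD plasmid library in pooled LB shake-flask culture, induced with 0.3% L-arabinose, DNA abundance read by NGS, three biological replicates, DESeq2 with apeglm shrinkage.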

| Sequence | shrunken log2 fold change |
| --- | --- |
| RRIRRRPPRLPRPRPRPRMVPRP | 0.218 |
| RRIRRRPPRLPRPRPRPREIPRP | 0.479 |
| RRIRYRPPRLPRPRPRPGRNPRP | 0.191 |
| RRIRDRPPRLPRPRPRPHMHPRP | -0.0478 |
| RRIRSRPPRLPRPRPRPKYMPRP | -0.677 |
| RRIRERPPRLPRPRPRPYISPRP | -0.977 |
| RRIRERPPRLPRPRPRPTMFPRP | -0.724 |
| RRIRGRPPRLPRPRPRPTTWPRP | 0.521 |
| RRIRARPPRLPRPRPRPKRAPRP | 0.65 |
| RRIRARPPRLPRPRPRPHPGPRP | 0.219 |
| RRIRWRPPRLPRPRPRPWLSPRP | -0.0459 |
| RRIRYRPPRLPRPRPRPDINPRP | -0.162 |
| RRIRDRPPRLPRPRPRPIDLPRP | -0.0817 |
| RRIRMRPPRLPRPRPRPYPMPRP | -0.126 |
| RRIRQRPPRLPRPRPRPARFPRP | 0.0469 |
| RRIRERPPRLPRPRPRPIGQPRP | 0.000367 |
| RRIRDRPPRLPRPRPRPVHLPRP | -0.23 |
| RRIRPRPPRLPRPRPRPHQFPRP | -0.0896 |
| RRIRMRPPRLPRPRPRPCITPRP | 0.156 |
| RRIRARPPRLPRPRPRPWWIPRP | -0.0901 |
| RRIRHRPPRLPRPRPRPFHLPRP | -0.438 |
| RRIRVRPPRLPRPRPRPYQGPRP | -0.236 |

| Sequence | shrunken log2 fold change |
| --- | --- |
| RRIRLRPPRLPRPRPRPHMWPRP | -0.325 |
| RRIRDRPPRLPRPRPRPCRCPRP | 0.0101 |
| RRIRTRPPRLPRPRPRPQEAPRP | 0.0871 |
| RRIRGRPPRLPRPRPRPGIGPRP | 0.942 |
| RRIRPRPPRLPRPRPRPDGDPRP | 0.152 |
| RRIRSRPPRLPRPRPRPLYFPRP | -0.682 |
| RRIRERPPRLPRPRPRPQPPPRP | 0.104 |
| RRIRFRPPRLPRPRPRPQCIPRP | -0.0639 |
| RRIRPRPPRLPRPRPRPTLNPRP | 0.0863 |
| RRIRCRPPRLPRPRPRPNYRPRP | -0.077 |
| RRIRKRPPRLPRPRPRPDNKPRP | -0.119 |
| RRIRGRPPRLPRPRPRPVQTPRP | 0.626 |
| RRIRQRPPRLPRPRPRPPVGPRP | 0.119 |
| RRIRSRPPRLPRPRPRPVEAPRP | -0.0651 |
| RRIRHRPPRLPRPRPRPAMMPRP | -0.114 |
| RRIRSRPPRLPRPRPRPFHFPRP | -0.308 |
| RRIRPRPPRLPRPRPRPCCFPRP | -0.133 |
| RRIRFRPPRLPRPRPRPKQTPRP | 1.01 |
| RRIRMRPPRLPRPRPRPYEHPRP | -0.291 |
| RRIRIRPPRLPRPRPRPHRYPRP | -0.171 |
| RRIRERPPRLPRPRPRPEFNPRP | -0.633 |
| RRIRTRPPRLPRPRPRPNDCPRP | 0.0184 |

| Sequence | shrunken log2 fold change |
| --- | --- |
| RRIRHRPPRLPRPRPRPHSTPRP | -0.349 |
| RRIRHRPPRLPRPRPRPAQQPRP | -0.0312 |
| RRIRPRPPRLPRPRPRPCAVPRP | -0.418 |
| RRIRERPPRLPRPRPRPPCGPRP | 0.259 |
| RRIRGRPPRLPRPRPRPTHIPRP | 0.255 |
| RRIRERPPRLPRPRPRPEDFPRP | 0.089 |
| RRIRRRPPRLPRPRPRPVQYPRP | -0.00909 |
| RRIRPRPPRLPRPRPRPGNWPRP | 0.0527 |
| RRIRMRPPRLPRPRPRPEYTPRP | -0.0269 |
| RRIRRRPPRLPRPRPRPQDIPRP | -1.16 |
| RRIRDRPPRLPRPRPRPGWHPRP | 0.27 |
| RRIRSRPPRLPRPRPRPWSMPRP | -0.176 |
| RRIRWRPPRLPRPRPRPWYCPRP | 0.0408 |
| RRIRCRPPRLPRPRPRPAERPRP | -0.109 |
| RRIRLRPPRLPRPRPRPPWQPRP | 0.594 |
| RRIRVRPPRLPRPRPRPMYKPRP | -0.608 |
| RRIRHRPPRLPRPRPRPTVNPRP | -0.144 |
| RRIRGRPPRLPRPRPRPKKPPRP | -0.0158 |
| RRIRVRPPRLPRPRPRPNYRPRP | 0.0968 |
| RRIRRRPPRLPRPRPRPLDAPRP | 0.472 |
| RRIRIRPPRLPRPRPRPMMVPRP | -0.00145 |
| RRIRFRPPRLPRPRPRPELNPRP | 0.164 |

| Sequence | shrunken log2 fold change |
| --- | --- |
| RRIRQRPPRLPRPRPRPDPPPRP | 0.316 |
| RRIRPRPPRLPRPRPRPIINPRP | -0.909 |
| RRIRIRPPRLPRPRPRPVMLPRP | -0.776 |
| RRIRGRPPRLPRPRPRPWLWPRP | 0.0131 |
| RRIRKRPPRLPRPRPRPIQIPRP | -0.14 |
| RRIRKRPPRLPRPRPRPCPFPRP | -0.223 |
| RRIRQRPPRLPRPRPRPSHKPRP | -0.0927 |
| RRIRTRPPRLPRPRPRPFPYPRP | -0.00797 |
| RRIRYRPPRLPRPRPRPGRCPRP | -0.102 |
| RRIRSRPPRLPRPRPRPKFAPRP | 0.0751 |
| RRIRMRPPRLPRPRPRPSTPPRP | 0.0303 |
| RRIRLRPPRLPRPRPRPSEPPRP | -0.114 |
| RRIRHRPPRLPRPRPRPQIMPRP | -0.682 |
| RRIRQRPPRLPRPRPRPKNFPRP | -0.0816 |
| RRIRQRPPRLPRPRPRPLHLPRP | -0.617 |
| RRIRNRPPRLPRPRPRPDDDPRP | -0.153 |
| RRIRHRPPRLPRPRPRPCKPPRP | -0.314 |
| RRIRYRPPRLPRPRPRPNYIPRP | -1.2 |
| RRIRCRPPRLPRPRPRPTEMPRP | -0.102 |
| RRIRQRPPRLPRPRPRPHYYPRP | -0.0332 |
| RRIRCRPPRLPRPRPRPSCCPRP | 0.0437 |
| RRIRLRPPRLPRPRPRPHTAPRP | -0.00187 |

| Sequence | shrunken log2 fold change |
| --- | --- |
| RRIRRRPPRLPRPRPRPFRCPRP | -0.15 |
| RRIRARPPRLPRPRPRPHNTPRP | -0.235 |
| RRIRHRPPRLPRPRPRPIHKPRP | -1.25 |
| RRIRSRPPRLPRPRPRPSALPRP | -0.0202 |
| RRIRERPPRLPRPRPRPQMWPRP | -0.0958 |
| RRIRCRPPRLPRPRPRPKMYPRP | -0.342 |
| RRIRTRPPRLPRPRPRPTDLPRP | -0.0718 |
| RRIRVRPPRLPRPRPRPPFVPRP | 0.0393 |
| RRIRARPPRLPRPRPRPEFSPRP | 1.27 |
| RRIRERPPRLPRPRPRPCWFPRP | -0.0254 |
| RRIRQRPPRLPRPRPRPNKPPRP | -0.195 |
| RRIRLRPPRLPRPRPRPHVWPRP | 0.198 |
| RRIRSRPPRLPRPRPRPQMPPRP | 0.189 |
| RRIRYRPPRLPRPRPRPFHIPRP | -0.24 |
| RRIRERPPRLPRPRPRPMEDPRP | -0.0739 |
| RRIRKRPPRLPRPRPRPVKIPRP | 0.158 |
| RRIRKRPPRLPRPRPRPFFWPRP | 1.09 |
| RRIRMRPPRLPRPRPRPSTWPRP | 0.081 |
| RRIRYRPPRLPRPRPRPWMAPRP | -0.288 |
| RRIRIRPPRLPRPRPRPCQLPRP | -0.812 |
| RRIRWRPPRLPRPRPRPYSTPRP | -0.225 |
